According to paper PMC9251887:

Biological target: GFP-Joka2 (tomato (SlJoka2))
Test: FRET or BRET; FRET-FLIM in N. benthamiana leaves; donor GFP-Joka2, acceptors RFP fusions; GFP lifetime measured in GFP-JOKA2 aggregates

RFP-XopL (natural protein)
reduction of the donor's fluorescence lifetime: 0.1 ns
